According to US20250241939A1, “NUCLEIC ACID-BASED DELIVERY SYSTEMS AND USES THEREOF” (Kodikaz Therapeutic Solutions, Inc., priority 2022, published 2025):

Tests used:
[1] = tested on: MM cell lines (MM1s, OPM1, RPMI); assay: Cell viability: sensitivity to bortezomib after culture with plasma and ctDNA; assay type: cell-based, human
Protocol: BR: Bortezomib resistant, BS: Bortezomib sensitive. Error bars indicate the standard deviation of triplicate experiments.
(§1) Cell viability: Cell viability assays were performed in 96 well, black, clear-bottom microplates. For MM cell line studies, 3×10^4 cells were cultured for 24 hours with media containing 10% human plasma of a bortezomib-resistant or-sensitive patient or a control non-cancer patient. Cells were then cultured for 24 hours with titrating concentrations of bortezomib (doses: 0, 5, 10, 15, 50 nM; Sigma). For PC cell lines viability studies, 1×10^4 cells were incubated for 24 hours with media containing plasma of a gemcitabine-resistant patient or non-cancer patient. Subsequently, titrating concentrations of gemcitabine (doses: 0, 10, 25, 50, 100, 200 μM; Sigma-Aldrich, MO) were added to the culture media and cells were then incubated for 96 hours. CellTiter-Blue Cell Viability Assay was used to evaluate cell viability according to the manufacturer's instructions (Promega). Cell viability was measured by a fluorescent protocol in an microplate reader. Experiments were performed in triplicate of 3 independent studies.

[2] = tested on: ctDNA chromatid integration in MM1s, MIA and HCT116 cell lines; assay: Effect of reverse transcriptase or integrase inhibitors on ctDNA chromatid integration; assay type: cell-based, human; conditions: HCT116 treated prior to adding ctDNA, compared to no treatment control
Protocol: To evaluate functionally the role of retrotransposons in horizontal gene transfer of ctDNA, experiments were conducted to test the impact of inhibiting reverse transcriptases or integrases on ctDNA integration. Multiple myeloma (MM1s), pancreatic cancer (MIA), and colon cancer (HCT116) cell lines were treated with the reverse-transcriptase inhibitors zidovudine or didanosine, and with the integrase inhibitor raltegravir prior to adding the ctDNA to culture media.

[3] = tested on: pancreatic cancer cell lines (MIA Paca-2 [MIA] and PANC1); assay: Cell viability: sensitivity to gemcitabine after culture with patient plasma; assay type: cell-based, human
Protocol: For the corresponding DNase I-treated samples, plasma was treated with DNase I for 10 minutes. GR: Gemcitabine resistant.
Gemcitabine (GEM)-sensitive pancreatic cancer cell lines (MIA Paca-2 [MIA] and PANC1) were cultured for 24 h with DNase-treated or non-treated plasma from (GEM)-resistant (GR) patients or control plasma.
as §1

[4] = tested on: multiple myeloma cell line; assay: Uptake of fluorescent MM2 fragments, fluorescent microscopy; assay type: cell-based; conditions: Fluorescein 12 dCTP labelled PCR products
Protocol: FIG. 19 provides fluorescence microcopy images showing uptake of fluorescently labelled synthetic DNA derived from a multiple myeloma ctDNA (MM2 (1-290), MM2 (89-290), MM2 (177-290), and MM2 (1-201), and MM2 (1-113)), or a control sequence.
Fluorescein 12 dCTP from Perkin Elmer was used to label the PCR products, which were purified after the reaction.
In an initial study, fragments were generated as follows:
The fluorescent DNA sequences were incubated with multiple a myeloma cell line and uptake was evaluated by fluorescent microscopy.
The study was repeated with 5′FAM-labelled primers, with similar results.

[5] = tested on: MM/B cell lines (MM1S and RPMI); assay: Uptake of MM2 fragments in different cell types; assay type: cell-based; conditions: DAPI and Texas red-phalloidin counterstain
From the text: (§2) FIG. 20 provides fluorescence microcopy images evaluating uptake of fluorescently labelled synthetic DNA derived from a multiple myeloma ctDNA (MM2 (1-290), MM2 (89-290), MM2 (177-290), and MM2 (1-201), and MM2 (1-113)) by multiple myeloma/B cell lines (MM1S and RPMI) and cell lines of other cell types (HFF—fibroblast, DU145—prostate cancer, MCF10A breast).
(§3) A follow-up experiment evaluated uptake of the fragments in different cell types, with counterstaining to identify nuclei (DAPI) and cytoplasm (Texas red-phalloidin).

[6] = tested on: HFF (fibroblast), DU145 (prostate cancer), and MCF10A (breast); assay: Uptake of MM2 fragments in different cell types; assay type: cell-based
From the text: as §2, §3

[7] = tested on: MM1s (multiple myeloma) cell genome; assay: ctDNA coculture with MM1s cells, whole genome sequencing: genomic insertion sites, transposons at insertion points and SNVs (multiple myeloma); assay type: cell-based, human
Protocol: The integration of ctDNAs into the host cell genome was evaluated. ctDNA was extracted from patient plasma, cultured for 24 hours with cells of a matching cancer cell type or non-matching cancer cell type, and whole genome sequencing was performed. The cell lines used were MM1s (multiple myeloma, MM) and MIA (pancreatic cancer, PC).
Single nucleotide variants (SNVs) unique to the ctDNA that were found in the host cell genome under matching coculture conditions were identified.
The sequence data was used to reconstruct genomic contigs for each experimental condition by de novo assembly. […] Coculture contigs carrying a ctDNA insertion were identified using NucDiff analysis. BLAST alignment analysis further validated the gain of ctDNA fragments in coculture conditions and identified the transition points of ctDNA insertion (FIGS. 3A-3C). […] The remaining 20% inserted into a chromosomal location distinct from their site of origin.
Experiments were designed to identify the presence of transposons in ctDNA fragments. To map ctDNA genomic junctions more precisely, a PACBIO probe was ligated to multiple myeloma and pancreatic cancer ctDNA samples to label their 5′ and 3′ ends. Whole-genome sequencing of DNA from cells with ctDNA genomic integration was done using the Illumina platform. De novo assembly was performed on the sequencing output. ctDNA contigs containing PACBIO adaptor were then matched to those contigs containing inserted ctDNA sequences identified in the coculture experiments. Transposable element on ctDNA sequences at the insertion points (<100 nucleotides from transition point between cell and ctDNA) were detected and classified using RepeatMaster.
A search was conducted for transposons that preferentially target cells of matching tumor types. The lists of transposons identified at the ctDNA insertion point in matching and mismatched coculture conditions were compared (e.g., MM ctDNA with MM cells or PC cells). Transposons were selected that were uniquely or preferentially inserted in the matching conditions.
In multiple myeloma, AluSp, MER11, MER11C, AluJb, and L2a, among other subfamilies of retrotransposons were identified at the MM ctDNA insertion sites (FIG. 5B and TABLE 7).
Whole-genome sequencing and Whole exon sequencing: ctDNA was extracted from 10 MM and 10 PC patients. DNA from CD138 (+) cells and from cell lines used in in vitro experiments (MM1s and MIA) was extracted using Blood & Cell Culture DNA Mini Kit (Quiagen, MD). DNA from […] paraffin embedded pancreatic tumors was obtained using QIAamp DNA FFPE Tissue Kit Print (Qiagen, MD).
After extraction, ctDNA was ligated to the PACBIO adaptor ([…]) using the ABM DNA Library Prep Kit for Illumina Sequencing (Applied Biological Materials Inc. Canada). PACBio-labeled ctDNA and regular ctDNA were subjected to standard methods for library preparation and sequencing using Illumina and Agilent protocols, respectively. Applied Biological Materials Inc. prepared the libraries and performed whole-exon and -genome sequencing. The average target coverage was 50×.
Identification of transposable elements and its nucleotide variants: To determine the locations of transposable-like regions in contigs, sequences were analyzed and transposable elements (TEs) were identified and classified using RepeatMasker version 4.1.0 and the Dfam database (release 3.1) of repetitive DNA families was used as a reference for identifying repeats in ctDNA contig sequences that were part of qualifying structural events. For each repeat sequence identified by RepeatMasker, the overall frequency of the specific repeat (e.g., for AluSp or L1) and their parent class (e.g., SINE) was computed.
Once the TE elements were identified, hit repeats/TE sequences, unique contigs for all samples, and insertion sequence were aligned with MAFFT software version. […]

## CC(C)C[C@H](NC(=O)[C@H](Cc1ccccc1)NC(=O)c1cnccn1)B(O)O [bortezomib]
[1]; MM1s and OPM1, ctDNA of BR patient added to non-cancer patient plasma
  sensitivity to bortezomib: decreased the sensitivity
[1]; RPMI cells, ctDNA of BS patient added to control plasma
  sensitivity to bortezomib: increased sensitivity
[1]; ctDNA of a BR patient added to plasma of a BR patient
  resistance to bortezomib: further increased

## O=c1[nH]cnc2c1ncn2[C@H]1CC[C@@H](CO)O1 [didanosine]
[2]
  ctDNA chromatid integration: significantly reduced

## Nc1ccn([C@@H]2O[C@H](CO)[C@@H](O)C2(F)F)c(=O)n1 [gemcitabine]
[3]; cells cultured 24 h with non-DNase-treated GR patient plasma, vs control serum
  response to gemcitabine: became resistant
[3]; cells cultured with DNase-treated GR plasma
  response to gemcitabine: restored the inherent sensitivity
[3]; control serum treated with DNase
  response to gemcitabine: increased resistance

## Cc1nnc(C(=O)NC(C)(C)c2nc(C(=O)NCc3ccc(F)cc3)c(O)c(=O)n2C)o1 [raltegravir]
[2]
  ctDNA chromatid integration: significantly reduced

## Cc1cn([C@H]2C[C@H](N=[N+]=[N-])[C@@H](CO)O2)c(=O)[nH]c1=O [zidovudine]
[2]
  ctDNA chromatid integration: significantly reduced

B1: MM2 (1-113): fluorescently labelled fragment of MM2 (1-290) (nucleic acid, listed as Homo sapiens)
DNA: ACCCGGCCTTGGACACGCCATTTTCAACTCCGTGGTGCGTTTTTTTTTTTTTTTTTTTTTTTTTGTAATGGAGTTTCGCTCTTGTTGCCCAGGATGGAGTGCAAGGGATCTTG
modifications: DNA, all phosphodiester, methylation of C not given here; fluorescein label via fluorescein-12-dCTP or 5' FAM primer
[4]
  uptake: not
[5]
  uptake: not

B2: MM2 (177-290): fluorescently labelled fragment of MM2 (1-290) (nucleic acid, listed as Homo sapiens)
DNA: GGGATTATAAGCACCCACCACCACGCCCAGCTAATTTTGTATTTTTTAGAAGAGATGGAGTTTCTCCAGTTGGCCAGGATGGTCTGTATATCCTGACCTCATGATCTGCCCACC
modifications: DNA, all phosphodiester, methylation of C not given here; fluorescein label via fluorescein-12-dCTP or 5' FAM primer
[4]
  uptake: observed
[6]
  uptake: not
[5]
  uptake: observed

B3: THE1C (nucleic acid, listed as Homo sapiens)
DNA: TGATATGGTTTGGCTGTGTCCCCACCTAAATCTCATCTTGAATTGTAGTTCCCATAATCCCCATGTGTCATGGGAGGGACCCAGTGGGAGGTAATTTAATCCTGGGGGCAGTTACCCTCCTGCTATGTGTGTGTGTGTGTGTGTGTTCTCACGAGATCTGATGGTTTTATAAGGGGCTTTTCCCCCTTCGCTCGGCACTTCTCCTTCCTGCCGCCATGTGAAGAAGGACGTGTTTGCTTCCCCTTCCGCCATGATTGTAAGTTTCCTGAGGCCTCCCCAGCCATGCNGAACTGTGAGTCAATTAAACCTCTTTCCTTTATAAATTACCCAGTCTCGGGTGTGTCTTTATTAGCAGCGTGAGAACGGACTAATACA
modifications: misc_difference 287 a, c, t, g, unknown or other
[7]; TABLE 7, multiple myeloma co-culture, BLAST alignment orientation
  blast orientation: Plus/Minus
[7]; TABLE 7, multiple myeloma co-culture, chromosome with the longest result for BLAST analysis of the full contig
  blast chr: chr14
[7]; TABLE 7, multiple myeloma co-culture, compared with the human reference genome
  Transposon orientation: direct
[7]; TABLE 7, multiple myeloma co-culture, distance between insertion and the transposon (0 if they overlap)
  Distance from insertion: 0
[7]; TABLE 7, multiple myeloma co-culture, location of the transposon relative to the insertion on the contig
  Location relative to insertion: intersect

B4: 3 (nucleic acid, listed as Homo sapiens)
chain: TCTCACCACCTCTACTACTGCCTATCTGCATCTGGGTGCACGTCCTCTGCTATTCCTTCTGTTTCTACAGAAGCTGTCCATATTTCTAAGGCTAATCCCTTGCATTTTGGTACCAGACTTCCCTGACCTACACAAAGATGATCACCCCCCAAAATTGCCTTTCTTTCCTGCATCAAGTTTTTTCTTCTCTACTGTATTATTCCTATTGCACATTAGCCCAAAAAATGCCGTTGTTTTTCCATCGGTAAAAAAAAAAAATAGAGAGAAAAAGAAAAATAATCCATTGCCGCCAATCTATCTTCTAGTCATTTTTCCATTTCTCTGTTCTCCATTCTGCATAAACCATTTTTACTTGAATTGTTTATACTTGCTGTTTACAACAAACCTCCTCTTTCTCTCCACCCCAATCAGATTTTGGTCCACATTCCTCATGCAGTGGTCAGTCCTTGGTCCTCAACCTAGTCTAGCCTGCTTGCTGGTGGGTGTGCTCTCGGGGCATTTGCTTGTGTTTGCACGACAGCTCAGTCCCTCACTTCTCTCAAGTCTTTGCTAATAACACTCTTGCATCCAAGTCTTCCCTGACCTGCTACTTAAAAACAACTCACCCCCACCCCTAGAAATCCCTATCCTCTTCCCTACGCTTTATTTTTCTCCATAATACTTATCACCATGTAGCTGAACATGTATTTTACTCACTTTTTTTTATATTGTCCATCTTCCCTCAGTGAATTGAAAGCTCCATGAGGGCAGGAGGTTTTGTTTATTGTGTTTACTGCTTTATCCCTAGCACCCAGCACAGCATATGTGATATAGTAGACACTCAATACAAATCTGATGTGTGTGTGTCT
[7]; gene at identified genomic insertion site, multiple myeloma
  Gene: AKAP6
[7]; identified genomic insertion site, chromosome, multiple myeloma
  Location: Chr4
[7]; number of single nucleotide variants (SNVs or SNPs) identified, multiple myeloma
  No. SNP: Many
